According to the supplement of paper PMC10567573:

B1: PHTF1 (parent)
chain: SRHLNSQVKKTTTRWCHIVRDSDS

Variants of: B1
Assay: protein stability index of a GFP-peptide fusion (GPS, HEK-293T) (PSI 1-6); higher = more stable
Settings: c terminus: a fixed tail appended
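Further: lentivirally expressed fusions sorted by FACS into six bins by GFP to DsRed ratio, PSI derived from sequencing read proportions per bin multiplied by bin number.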

| Variant | protein stability index |
| --- | --- |
| SRHLNSVVKKTTTRWCHIVRDSDS [Q7V] | 1.4 |
| SRHLNSQVKKQTTRWCHIVRDSDS [T11Q] | 2.43 |
| SRHLNSQVKKPTTRWCHIVRDSDS [T11P] | 2 |
| SRHLNSQVKKNTTRWCHIVRDSDS [T11N] | 1.79 |
| SRHLNSQVKKMTTRWCHIVRDSDS [T11M] | 2.39 |
| SRHLNSQVKKLTTRWCHIVRDSDS [T11L] | 1.58 |
| SRHLNSQVKKCTTRWCHIVRDSDS [T11C] | 3.08 |
| SRHLNSQVKKITTRWCHIVRDSDS [T11I] | 1.67 |
| SRHLNSQVKKRTTRWCHIVRDSDS [T11R] | 2.12 |
| SRHLNSQVKKDTTRWCHIVRDSDS [T11D] | 2.97 |
| SRHLNSQVKKVTTRWCHIVRDSDS [T11V] | 1.13 |
| SRHLNSQVKKKTTRWCHIVRDSDS [T11K] | 2.16 |
| SRHLNSQVKKFTTRWCHIVRDSDS [T11F] | 1.94 |
| SRHLNSQVKKATTRWCHIVRDSDS [T11A] | 3.08 |
| SRHLNSQVKKSTTRWCHIVRDSDS [T11S] | 1.83 |
| SRHLNSQVKKGTTRWCHIVRDSDS [T11G] | 2.48 |
| SRHLNSQVKKWTTRWCHIVRDSDS [T11W] | 2.02 |
| SRHLNSQVKKETTRWCHIVRDSDS [T11E] | 2.11 |
| SRHLNSQVKKYTTRWCHIVRDSDS [T11Y] | 2.41 |
| SRHLNSQVKKHTTRWCHIVRDSDS [T11H] | 2.95 |
| SRHLNSQVAKTTTRWCHIVRDSDS [K9A] | 2.48 |
| SRHLNSQVGKTTTRWCHIVRDSDS [K9G] | 2.55 |
| SRHLNSQVPKTTTRWCHIVRDSDS [K9P] | 2.71 |
| SRHLNSQVYKTTTRWCHIVRDSDS [K9Y] | 1.68 |

| Variant | protein stability index |
| --- | --- |
| SRHLNSQVFKTTTRWCHIVRDSDS [K9F] | 1.83 |
| SRHLNSQVDKTTTRWCHIVRDSDS [K9D] | 2.23 |
| SRHLNSQVMKTTTRWCHIVRDSDS [K9M] | 2.37 |
| SRHLNSQVIKTTTRWCHIVRDSDS [K9I] | 1.97 |
| SRHLNSQVVKTTTRWCHIVRDSDS [K9V] | 3.18 |
| SRHLNSQVRKTTTRWCHIVRDSDS [K9R] | 2.16 |
| SRHLNSQVEKTTTRWCHIVRDSDS [K9E] | 2.33 |
| SRHLNSQVTKTTTRWCHIVRDSDS [K9T] | 1.83 |
| SRHLNSQVCKTTTRWCHIVRDSDS [K9C] | 2.13 |
| SRHLNSQVQKTTTRWCHIVRDSDS [K9Q] | 2.02 |
| SRHLNSQVSKTTTRWCHIVRDSDS [K9S] | 2.26 |
| SRHLNSQVHKTTTRWCHIVRDSDS [K9H] | 1.81 |
| SRHLNSQVLKTTTRWCHIVRDSDS [K9L] | 2.21 |
| SRHLNSQVNKTTTRWCHIVRDSDS [K9N] | 2.35 |
| SRHLNSQVWKTTTRWCHIVRDSDS [K9W] | 1.85 |
| SRHLNSQVKKTTYRWCHIVRDSDS [T13Y] | 1.72 |
| SRHLNSQVKKTTKRWCHIVRDSDS [T13K] | 1.76 |
| SRHLNSQVKKTTNRWCHIVRDSDS [T13N] | 1.91 |
| SRHLNSQVKKTTARWCHIVRDSDS [T13A] | 2.31 |
| SRHLNSQVKKTTHRWCHIVRDSDS [T13H] | 2.02 |
| SRHLNSQVKKTTMRWCHIVRDSDS [T13M] | 2.1 |
| SRHLNSQVKKTTERWCHIVRDSDS [T13E] | 2.94 |
| SRHLNSQVKKTTSRWCHIVRDSDS [T13S] | 2.05 |
